Target: T1, purified full length CFTR (UniProt P13569 1-1480)
T1 construct: cystic fibrosis transmembrane conductance regulator, full length, called Wt-CFTR in the SPR methods; also called pure CFTR; Wt-CFTR; source: purified, gift from Pr Robert Ford (University of Manchester, UK)
Assay: SPR; Biacore 3000, calumenin amine-coupled to a CM5 chip (about 2000 RU), CFTR injected at 0.15 to 1.5 nM, 5 µl/min, HBS-EP pH 7.4, 25°C, triplicate
Conditions: both partners purified

T1 sequence (P13569 whole entry): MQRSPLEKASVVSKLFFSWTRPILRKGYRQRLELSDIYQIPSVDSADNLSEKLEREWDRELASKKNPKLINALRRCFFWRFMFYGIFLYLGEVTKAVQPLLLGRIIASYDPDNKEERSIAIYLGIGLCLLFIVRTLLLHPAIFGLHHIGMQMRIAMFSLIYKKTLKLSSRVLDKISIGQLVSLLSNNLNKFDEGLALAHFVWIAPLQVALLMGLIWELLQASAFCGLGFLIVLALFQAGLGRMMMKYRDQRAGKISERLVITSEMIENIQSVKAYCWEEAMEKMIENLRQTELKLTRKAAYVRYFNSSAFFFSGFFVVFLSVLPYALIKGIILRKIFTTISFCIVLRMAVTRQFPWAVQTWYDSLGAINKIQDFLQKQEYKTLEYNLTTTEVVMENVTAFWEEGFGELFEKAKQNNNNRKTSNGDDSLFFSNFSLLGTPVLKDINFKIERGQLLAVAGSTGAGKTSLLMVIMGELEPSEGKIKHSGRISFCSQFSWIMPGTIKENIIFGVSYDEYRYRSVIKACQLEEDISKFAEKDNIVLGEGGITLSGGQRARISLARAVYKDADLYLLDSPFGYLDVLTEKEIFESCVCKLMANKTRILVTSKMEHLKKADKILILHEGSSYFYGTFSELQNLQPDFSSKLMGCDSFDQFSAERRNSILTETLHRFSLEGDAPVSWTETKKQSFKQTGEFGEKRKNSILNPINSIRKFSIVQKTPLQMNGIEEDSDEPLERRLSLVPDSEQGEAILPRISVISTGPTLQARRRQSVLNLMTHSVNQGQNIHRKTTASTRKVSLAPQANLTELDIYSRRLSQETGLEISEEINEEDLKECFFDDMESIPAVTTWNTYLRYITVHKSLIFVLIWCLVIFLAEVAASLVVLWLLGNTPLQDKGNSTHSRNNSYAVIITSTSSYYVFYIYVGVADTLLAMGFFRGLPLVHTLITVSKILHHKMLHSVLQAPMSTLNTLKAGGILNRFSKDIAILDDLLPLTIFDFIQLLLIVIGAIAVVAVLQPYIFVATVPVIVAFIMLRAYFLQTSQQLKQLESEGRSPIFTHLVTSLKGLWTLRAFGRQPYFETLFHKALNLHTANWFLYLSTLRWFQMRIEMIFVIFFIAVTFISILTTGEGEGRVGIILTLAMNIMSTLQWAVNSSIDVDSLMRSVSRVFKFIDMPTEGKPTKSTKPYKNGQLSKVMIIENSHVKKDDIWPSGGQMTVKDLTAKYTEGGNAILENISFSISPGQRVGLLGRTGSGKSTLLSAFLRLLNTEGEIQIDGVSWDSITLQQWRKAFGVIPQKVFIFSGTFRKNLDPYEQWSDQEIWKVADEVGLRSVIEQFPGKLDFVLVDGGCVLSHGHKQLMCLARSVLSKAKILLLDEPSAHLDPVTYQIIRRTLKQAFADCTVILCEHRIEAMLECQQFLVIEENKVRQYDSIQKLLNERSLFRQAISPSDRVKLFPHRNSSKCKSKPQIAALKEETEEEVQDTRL

- Kd: 3.8 pM
B1: Pure recombinant human calumenin (natural protein, UniProt O43852 20-315, looked up)
chain: KPTEKKDRVHHEPQLSDKVHNDAQSFDYDHDAFLGAEEAKTFDQLTPEESKERLGKIVSKIDGDKDGFVTVDELKDWIKFAQKRWIYEDVERQWKGHDLNEDGLVSWEEYKNATYGYVLDDPDPDDGFNYKQMMVRDERRFKMADKDGDLIATKEEFTAFLHPEEYDYMKDIVVQETMEDIDKNADGFIDLEEYIGDMYSHDGNTDEPEWVKTEREQFVEFRDKNRDGKMDKEETKDWILPSDYDHAEAEARHLVYESDQNKDGKLTKEEIVDKYDLFVGSQATDFGEALVRHDEF
notes: calumenin, human, recombinant; No catalogue number, host, limits or tag are printed; also called pure calumenin; source: bought: Prospec (Israel)

Reference: publication PMC3387016, “Proteomic Identification of Calumenin as a G551D - CFTR Associated Protein” (PLoS ONE, 2012)
